We go through six molecules from patent US20230303667A1.

The test deals with Ebola Zaire (Kikwit strain) glycoprotein (Ebola Zaire (Kikwit strain)) (UniProt P87666). Nature of the test: cell-based or functional assay.
Chain of Ebola Zaire (Kikwit strain) glycoprotein (Ebola Zaire (Kikwit strain)) (P87666 33-676 limits assumed): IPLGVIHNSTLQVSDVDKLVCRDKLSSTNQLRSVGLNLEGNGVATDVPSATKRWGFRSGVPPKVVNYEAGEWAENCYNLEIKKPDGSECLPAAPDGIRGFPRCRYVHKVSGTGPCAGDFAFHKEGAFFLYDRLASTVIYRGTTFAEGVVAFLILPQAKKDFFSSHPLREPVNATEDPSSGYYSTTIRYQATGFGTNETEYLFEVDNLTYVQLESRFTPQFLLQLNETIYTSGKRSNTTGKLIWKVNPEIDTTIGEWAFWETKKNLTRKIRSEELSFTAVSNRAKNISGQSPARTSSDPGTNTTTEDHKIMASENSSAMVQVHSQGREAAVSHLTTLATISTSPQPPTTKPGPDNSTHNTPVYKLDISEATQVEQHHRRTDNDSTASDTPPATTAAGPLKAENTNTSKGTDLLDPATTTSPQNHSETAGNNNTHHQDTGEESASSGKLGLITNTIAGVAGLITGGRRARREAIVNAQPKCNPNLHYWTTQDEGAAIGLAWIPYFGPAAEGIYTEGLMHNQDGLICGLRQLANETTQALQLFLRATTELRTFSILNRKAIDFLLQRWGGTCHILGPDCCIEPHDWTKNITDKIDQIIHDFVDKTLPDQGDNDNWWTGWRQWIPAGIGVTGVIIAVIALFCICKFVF

B1: 5.1.7D03 (antibody, V domains shown)
VH: EVQLVQSGGGLAQPGGSLRLSCAASGFTFRSYDMHWVRQVTGKGLEWVSAIGTAGDTYYTGSVKGRFTISRENDKSSLYLQMSSLRGEDTAVYYCARAAFGSHYFDYWGQGTLVTVSS
VL: EIVLTQSPGTLSLSPGERAALSCRASQSVSGNYFAWYQQKSGQAPRLLISAASSRATGVPDRFSASGSGTDFTLTISRLEPEDSAVYYCQQYGSSPLTFGQGTKVEIK
Regarding B1, the PRNT50 (ug/ml) for Ebola Zaire (Kikwit strain) was determined as 1.57 µg/mL.

B2: 9.6.1A09 (antibody, V domains shown)
VH: EVQLVESGGGLVQPGGSLRLSCAASGFTFRSYDMDWFRQSTGKGLEWVSAIGSAGDTYYTDSVKGRFTISRENGKNSLYLQMNSLRAGDTAVYYCARARFGDNVFDLWGRGTLVTVSS
VL: DIVMTQSPDSLAVSLGERASINCKSSQSVLSSSNTKNYLAWYQHKPGQPPKLLIYWASTRESGVPDRFSGSGSGTDFTLTISSLQPEDVAVYYCQQYYGAPYTFGQGTKVEIK
Regarding B2, the PRNT50 (ug/ml) for Ebola Zaire (Kikwit strain) was 0.781 µg/mL.

B3: 9.6.3A06 (antibody, V domains shown)
VH: EVQLLESGGGLVKPGGSLRLSCAASGFTFNEYMMNWVRQPPGKGLEWVSSISGTSTYINYADSVKGRFTISRDNAKNSLYLQMNSLRSDDTAMYYCARGSTGGYWGQGTLITVSS
VL: DIVMTQTPLSSAVTLGQPASISCRSSQRLVHSDGNTYLSWLHQRPGQPPRLLIYKVSLRFSGVPDRFSGSGAGTDFTLKISRVEAEDVGIYYCMQATQFPLTFGGGTKVEIK
Molecule B3 returned a PRNT50 (ug/ml) for Ebola Zaire (Kikwit strain) of 0.0488 µg/mL.

B4: 5.6.c2618 (antibody, V domains shown)
VH: QVQLVQSGAEVKKPGASVNLSCKGSGYSFRTYYIHWVRQAPGQGLEWMGIINSSGGGTTYAQKFQGRVTMTRDTSTSTVYMELRSLKYEDTAMYYCARDRFPTVSGEPFAMDVWGQGTTVTVSS
VL: EVVLTQSPVTLSLSPGERATLSCRASQSVSGYLAWYQQKPGQVPRLLIYDTSNRATGIPARFSGSGSGTDFTLTISTIEPEDFAVYYCQQRSKWGVTFGGGTKVDIK
As for B4, the PRNT50 (ug/ml) for Ebola Zaire (Kikwit strain) turned out to be 0.0061 µg/mL.

B5: 2.10.1E06 (antibody, V domains shown)
VH: EVQLVESGGGLIQPGGSLRLSCTASGFTFSKFAMSWVRQAPGRGLEWISYISGGSKTKYYADSVRGRFTISRDNAKGSLFLQMNSLRAEDTAIYFCAKKGWQSTFLGMDYFYGMDVWGKGTTVTVSS
VL: EIVLTQSPGTLSLSPGERATLSCRASQSVTSNYLAWYQQKPGQAPRVLIYGASSRATGIPDRFSGSGSGTDFTLTISRLEPEDFAVYYCQQFGASPPYSFGQGTKVEIK
In turn, B5 gave a PRNT50 (ug/ml) for Ebola Zaire (Kikwit strain) of 0.781 µg/mL.

B6: 5.1.13G03 (antibody, V domains shown)
VH: QVQLQESGPGLVKPSGTLSLTCAVSGGSISSTNWWSWVRQPPGKGLEWIGEIYHSGSTNYNPSLKSRVTISLDKSKDQFSLKLSSVTAADTAVYYCAYSNTWTGGWGQGTLVTVSS
VL: DIQMTQSPSSLSASVGDRVTITCRASQSISSYLNWYQQKPGKAPKVLIYSAFSLQNGVPSRFSGSGSGTDFTLTISSLQPEDFATYYCQQSYSTPRTFGQGTKVEIK
As for B6, the PRNT50 (ug/ml) for Ebola Zaire (Kikwit strain) is 0.0978 µg/mL.
